Laboratory results published in EP1161262B1 (University of Maryland, Baltimore, dated 2008).

T1: colligin/Hsp47 of the murine Lewis Lung Carcinoma (LL/2) cell line (murine, UniProt P19324 18-417)
T1 construct: whole, on cells; Endogenous protein of LL/2 cells
T1 sequence (looked up): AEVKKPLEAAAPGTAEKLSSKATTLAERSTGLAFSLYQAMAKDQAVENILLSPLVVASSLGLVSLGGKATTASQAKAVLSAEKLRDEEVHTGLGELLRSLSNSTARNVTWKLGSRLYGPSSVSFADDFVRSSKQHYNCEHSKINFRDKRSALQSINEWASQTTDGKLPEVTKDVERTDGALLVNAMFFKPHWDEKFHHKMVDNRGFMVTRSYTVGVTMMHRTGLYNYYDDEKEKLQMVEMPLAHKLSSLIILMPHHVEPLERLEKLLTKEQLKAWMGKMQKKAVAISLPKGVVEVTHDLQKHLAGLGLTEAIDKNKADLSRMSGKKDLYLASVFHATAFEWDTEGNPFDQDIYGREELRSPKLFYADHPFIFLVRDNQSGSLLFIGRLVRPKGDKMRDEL

T2: colligin/Hsp47 on the surface of human carcinoma cells (human, UniProt P50454 19-418)
T2 construct: whole, on cells; Endogenous protein on cells or in plasma membrane preparations and lysates of surface-biotinylated human SCC cells; also called CBP2; colligin/CBP2/Hsp47
T2 sequence (looked up): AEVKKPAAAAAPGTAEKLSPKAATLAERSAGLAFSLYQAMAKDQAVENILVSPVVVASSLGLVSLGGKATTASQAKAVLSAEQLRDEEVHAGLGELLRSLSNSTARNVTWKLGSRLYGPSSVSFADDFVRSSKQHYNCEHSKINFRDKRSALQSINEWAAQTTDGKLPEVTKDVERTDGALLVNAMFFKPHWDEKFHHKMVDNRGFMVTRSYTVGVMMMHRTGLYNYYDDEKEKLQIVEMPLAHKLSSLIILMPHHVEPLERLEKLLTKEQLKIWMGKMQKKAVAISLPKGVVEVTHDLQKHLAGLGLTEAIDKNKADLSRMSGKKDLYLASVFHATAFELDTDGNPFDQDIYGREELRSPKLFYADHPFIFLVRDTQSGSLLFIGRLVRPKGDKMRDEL


What was measured:
[1] = molecular target: T1, colligin/Hsp47 of the murine Lewis Lung …; assay: DSP cross-linking of surface-labelled cells, immunoprecipitation with anti-CD81 mAbs
[2] = molecular target: T2, colligin/Hsp47 on the surface of human …; assay: as above

binding result [1] | binding result [2] | Binder
no binding | – | CD81 of murine LL/2 cells (other, UniProt P35762 1-236, looked up, whole, on cells) MGVEGCTKCIKYLLFVFNFVFWLAGGVILGVALWLRHDPQTTSLLYLELGNKPAPNTFYVGIYILIAVGAVMMFVGFLGCYGAIQESQCLLGTFFTCLVILFACEVAAGIWGFVNKDQIAKDVKQFYDQALQQAVMDDDANNAKAVVKTFHETLNCCGSNALTTLTTTILRNSLCPSGGNILTPLLQQDCHQKIDELFSGKLYLIGIAAIVVAVIMIFEMILSMVLCCGIRNSSVY
– | no binding | CD81 of human SCC cells (other, UniProt P60033 1-236, looked up, whole, on cells) MGVEGCTKCIKYLLFVFNFVFWLAGGVILGVALWLRHDPQTTNLLYLELGDKPAPNTFYVGIYILIAVGAVMMFVGFLGCYGAIQESQCLLGTFFTCLVILFACEVAAGIWGFVNKDQIAKDVKQFYDQALQQAVVDDDANNAKAVVKTFHETLDCCGSSTLTALTTSVLKNNLCPSGSNIISNLFKEDCHQKIDDLFSGKLYLIGIAAIVVAVIMIFEMILSMVLCCGIRNSSVY
